Results as given in paper PMC12680046.

How the values were obtained:
[1] = target: mCherry-BICD2N-EGFR (Ex19Del/T790M/C797S)-HomoFC
[2] = target: mCherry-BICD2N-EGFR (Ex19Del/T790M/C797S)-HomoFC; experiment: split reporter
[3] = target: mCherry-EGFR (L858R/T790M)-HomoFC (UniProt P00533); experiment: split reporter

Substance	C/N ERK-KTR ratio after EGF stimulation [1]	HomoFC/mCherry ratio (EGF) [2]	fold lower oligomer signal than WT EGFR at the basal level [2] [fold]	fold reduction of the oligomer signal against the nonfused mutant [2] [fold]	percent reduction of EGFR oligomerization (HomoFC) [3] [%]
mCherry-BICD2N-EGFR (Ex19Del/T790M/C797S)-HomoFC (from UniProt Q8TD16;P00533) (receptor)	0.64	0.12	3.3	18.8	–
YFP–DARPin (E69)–BICD2N (from UniProt Q8TD16 1-594) (designed binder)	–	–	–	–	50
